According to the DeepSol protein solubility set:

Assay: soluble on expression in E. coli; label from the status in PepcDB or PDB records

Sequence | soluble on expression in E. coli
MGSDKIHHHHHHMDTVNYTHHLSTFVDVVRAGSFSAVARRQGMKPSSIARKIDMLEDYFGAALFVRSTRALMLTDVGEVLVARAEVILNELNAMRVEIKSIKDNLDGPLRISCLPTFGKLHILPWLPKLRENFPRMTVELDLTERIANPSIERLDAVLRIGPLNDSGLYAKTIGVQRWLVCASPAYVGRSGKPAGWSQLAGHAIVDKLHDPAGICWHGALDPQQYSAMSIGFRCNDFDGLRQAALGGLGLAYLPDWVALPDITAGRLVKLFDDSKRGDEPISLLRASSKPSARLQIFHDALLDHLRKFSETGYGVE | not soluble
MKFDPTSPSLNIMLANPRGFCAGVDRAISIVERALELFSPPIYVRHEVVHNRYVVQNLKDRGAVFVEELDQVPDNNIVIFSAHGVSQAVRAEAKARGLRVFDATCPLVTKVHLQVTRASRKGIECILIGHAGHPEVEGTMGQYDNPNGGVYLIESPADVETLEVRDPNNLCFVTQTTLSVDDTLDIISALLKRFPSIEGPRKDDICYATQNRQDAVRNLSADVDLLIVVGSKNSSNSNRLRELALKTGTQSYLVDTADDIDSSWFENITKVAVTAGASAPEVLVQQVVQAIAKLAPSVVTEVEGRKEDTVFAVPAELR | soluble
MGSDKIHHHHHHMNNTIPRWRGFNLLEAFSIKSTGNFKEEDFLWMAQWDFNFVRIPMCHLLWSDRGNPFIIREDFFEKIDRVIFWGEKYGIHICISLHRAPGYSVNKEVEEKTNLWKDETAQEAFIHHWSFIARRYKGISSTHLSFNLINEPPFPDPQIMSVEDHNSLIKRTITEIRKIDPERLIIIDGLGYGNIPVDDLTIENTVQSCRGYIPFSVTHYKAEWVDSKDFPVPEWPNGWHFGEYWNREKLLEHYLTWIKLRQKGIEVFCGEMGAYNKTPHDVVLKWLEDLLEIFKTLNIGFALWNFRGPFGILDSERKDVEYEEWYGHKLDRKMLELLRKY | soluble
GEASPVDPLRPVVDASIQPLLKEHRIPGMAVAVLKDGKAHYFNYGVANRESGAGVSEQTLFEIGSVSKTLTATLGAYAVVKGAMQLDDKASRHAPWLKGSAFDSITMGELATYSAGGLPLQFPEEVDSSEKMRAYYRQWAPVYSPGSHRQYSNPSIGLFGHLAASSLKQPFAPLMEQTLLPGLGMHHTYVNVPKQAMASYAYGYSKEDKPIRVNPGMLADEAYGIKTSSADLLRFVKANIGGVDDKALQQAISLTHQGHYSVGGMTQGLGWESYAYPVTEQTLLAGNSAKVILEANPTAAPRESGSQVLFNKTGSTNGFGAYVAFVPARGIGIVMLANRNYPIEARIKAAHAILAQLAG | soluble
MAHHHHHHMQSTGGLPFYGNLYAGRVDSQNYVPPRQGGSGLLEVDKSLWDNPATRQKLQSCPYFALSDQVMFHNMDPVYLDPGLLSPEEHQLLLLFSRAYYEKWSVIHRRPPHALPRLRITYGSSKLLDEILFLLDVHPDVCEVLKKEYAVDDSTLIGMNPNLWSSAYLDPANMDHLSGRVLEFAGVPEPKRTKFFLLLDQMRRIKVHRRDLPNSEERVDVVPFCYGVTLYDFCKFLGITPYSGQLKVYDYVDLQGTARSETLKDEDSYFDYLVALFYRADVRSATLTDLADASDHTCRYTVTVEPFTTADRRVGRWF | soluble
MQGLESLTYYTENYPPLNFAKEDGKPAGIAVDLLLEAAAAVNVTLNLDQIFVQPWPRSYRSALLKQDGVLFSTTRTTHRENLFNWVGPIADIKVVVLARKSSQIKVNDPIELGNYRIGVIRDDIGEQQLLQLEHHHHHH | not soluble
PRRLEPLIEDGLIDEVVRPLMSGKEASVYVVRCGDSLRCAKVYKEANKRSFRQAAEYQEGRKVRNSRQARAMAKGSKYGRREQEEAWQNAEVAALFRLAGAGVRVPKPYDFLDGVLLMELVADADGDAAPRLNDVTLEPDEARRHHAFLIRQIVAMLCAGLVHGDLSEFNVLLGPDGPVIIDLPQAVDAAGNNHAFSMLERDVGNMAAYFGRFAPELRQTRYAKEMWALYEAGELTAETPLSGTFVEAEEAADVRAVLREIEAAQREEARRQALRQADDAPRGEREE | not soluble
MAIRRLRTIFVSLLLGLAASATQAADRSDRNVTAKLEGRFEWDFALFDNDTRGTPNRSNNEIRRFWLDVTGKVFAFDYTIEGNFTNLQDKFKGKSIEMGDVYLRHDFGNTGTLTLGQFKQHFSLDDRTSPDYGQFLERSGGANTLAPEYHKGVSWKATHQNTTWWVSAYSLDSISLSNVNGRGLGGRGTWSPDTPEGDVLHLGLSLAHQRYDHPGSDGMTALSIRPLPAGHLSDNSGITLAHFANGRDTKVNRWALEYAQVRGPLSWQSEYIGGAFNDGMQRATVQSAYGFVSWFVTGESRTYDRKTGRFTRIKTLHNPRGALELALRYDRMWGNQHHNNQPNFLNASTASCTLGVNWYIKPNLRLMLNLIDSRNRDRLAGTVLDHTRALTGRLHYDF | not soluble
MGSDKIHHHHHHMSPRCSTCGMGQLCLPVGMNQQDLQKMDTLVQERVRVHKGETLYRMGDPLTAVYAIRFGTLKTHVTTEDGRSQITGFHLPGEVVGLDGLGEMQHASDATALEDTEVCVVRLSDLQSLSMDLPSLQQQFLRLMGKEISNDQLMLVTLGSMRAEERLAAFLINLSERLSARGYSSTEFVMRMSREEIGSYLGLKLETVSRLFSRFAEAGLIQIRQRHVKLVDMAGIKQVYSRSC | not soluble
MGHHHHHHSHMVKDIIIASFYKFIPLNDFESLREPILTKMHEIGIKGTIILAHEGVNGGFAGNREQMNVFYDYLRSDSRFADLHFKETYDNKNPFDKAKVKLRKEIVTMGVQKVDPSYNAGTYLSPEEWHQFIQDPNVILLDTRNDYEYELGTFKNAINPDIENFREFPDYVQRNLIDKKDKKIAMFCTGGIRCEKTTAYMKELGFEHVYQLHDGILNYLESIPESESLWEGKCFVFDDRVAVDQKLDRVYPQLPQDYKYEREQK | soluble
MGSDKIHHHHHHMTQRHSRILLFVVNTPEFFLSHRLPIAIAAHKAGYEVHVASAEGDGVQAVLAHGFVHHSIGFARSGQNPWVEFRTLVSLVQVMRRVQPDIVHLITIKPVLYGGIAARLVRVPAVVSAVSGLGTVFLAHTWATRLRRWFIIELYKAAFKQRSLAVIFQNPDDRDTLISSGAIQSGDTRMIRGSGVSLDDYPCVTEPEGKPVAVMAARLLRNKGVVEFVGAARILRDRGVDVDMRLIGSPDLDNPASVTELELERWKSESVVTLMGYRKDIAHQYASSNIVCLPSYYGEGLPKSLVEAAACGRAVVTTDHPGCRDAILPDETGVLIPIKDSVALANAIQRLIENPDLRRKMGKAGRELAEEAFSIDQIVEQHLKIYDEVMATVRNGSLRQ | not soluble
MTNEEPVPSTSSVLSAAEKNVKIETPSRKRKGLDIDALWRKKFKDVENQKSPEKSEKSEKTIKEEPLETHPSGERKLRSASKDSKSLSKETHNTISTRSSSSGTPRKKMEPEDVKPNIKMLKKSLPVSFQCSNLNDGTVGDASVMLDPTKISLHSSSVAYGEESQDEMEVIQHSTDDPNGTREEFDYNQIEYGNAVTPNGTYTLYAPDSNYAPYYQYSNNMQSSPQDNAPYLVPAPQSPVSIDDADSINLPNNQRASPATVNWLFENYEIGEGSLPRCELYDHYKKHCAEHRMDPVNAASFGKLIRSVFHNLKTRRLGTRGNSKYHYYGIRLKDSSTLHSMQHPQPQIIQNTYTPPMQLPQRDAYADTVNQVAAIKYMDVEIPDKRARKDNSSSSSSCRDSVSPCMDLPAQQTIQHTPVHSVIPSTQQPAPLHNNNVVSYVVTESDKAAMGKIDLPIVPFPDKDALMATIGFRKLGVGEEELNSLIDIYEILCREILALIKNIDFASVEDTWSKFWSGNFGVDRDHISALCTLDQVQDYIIEVDLALYQTIVDTLIPNVLLSELSTGMTQTCRTFAKNIDVYLRKSLMLANLGEFFVKKKIQAIKYLQQGLKRYTSLNHLAHASRGVLMKPEQVQQMYQDYIRVDINTVHQQAGWICGCDSVMVHHVNNAFKHNLQRMSAMEVWAEWLESIVDQVLAKYHDKPANVIANVGKQFLLNWSFYTSMIIRDLTLRSAMSFGSFTLIRLLADDYMYYLIESKIAKAGKQQLITVIRADKDWPLTTNPQEYIVVANDNDEDLDLEKAGLL | not soluble
